Reference: patent US20180162947A1 (UCB, published 2018)
Changes are numbered by the printed parent chain. In names and notes the source's numbering stands.

B1: 969gH1gL1 (antibody, human IgG4 S228P, kappa, name in Kabat numbering, V domains shown)
VH: EVTLKESGPALVKPTQTLTLTCTFSGFSLTTYGMGVGWIRQPPGKALEWLANIWWDDDKYYNPSLKNRLTISKDTSKNQAVLTMTNMDPVDTATYYCARIGPIKYPTAPYRYFDFWGQGTMVTVSS
VL: DIQMTQSPSSLSASVGDRVTITCLASEDIYDNLAWYQKKPGKAPKLLIYYASSLQDGVPSRFSGSGSGTDYTLTISSLQPEDFATYFCLQDSEYPWTFGGGTKVEIKR
notes: Humanised IgG4 (S241P)/kappa; positions are Kabat; also called Ab969.g1
B2: 969gH2gL8 (antibody, human IgG4 S228P, kappa, name in Kabat numbering, V domains shown)
VH: B1 VH with A80V
VL: B1 VL with K38Q, Y71F, F87Y
notes: Humanised IgG4 (S241P)/kappa, no donor residues; position is Kabat; also called Ab969.g4
B3: 969gH2gL1 (antibody, human IgG4 S228P, kappa, name in Kabat numbering, V domains shown)
VH: B1 VH with A80V
VL: B1 VL
notes: Humanised IgG4 (S241P)/kappa; positions are Kabat; also called Ab969.g6
B4: 969gH2gL4 (antibody, human IgG4 S228P, kappa, name in Kabat numbering, V domains shown)
VH: B1 VH with A80V
VL: B1 VL with F87Y
notes: Humanised IgG4 (S241P)/kappa; positions are Kabat; also called Ab969.g7
B5: 969gH2gL7 SG (antibody, human IgG4 S228P, kappa, V domains shown)
VH: B1 VH with A80V
VL: B1 VL with K38Q, D56S, F87Y
notes: Humanised IgG4 (S241P)/kappa; also called 969H2gL7(SG)
B6: 969gH1gL6 (antibody, human IgG4 S228P, kappa, name in Kabat numbering, V domains shown)
VH: B1 VH
VL: B1 VL with Y71F, F87Y
notes: Humanised IgG4 (S241P)/kappa; positions are Kabat
B7: 969gH1gL4 (antibody, human IgG4 S228P, kappa, name in Kabat numbering, V domains shown)
VH: B1 VH
VL: B1 VL with F87Y
notes: as for B6
B8: 969gH2gL2 (antibody, human IgG4 S228P, kappa, name in Kabat numbering, V domains shown)
VH: B1 VH with A80V
VL: B1 VL with K38Q
notes: as for B6
B9: 969gH1gL7 (antibody, human IgG4 S228P, kappa, name in Kabat numbering, V domains shown)
VH: B1 VH
VL: B1 VL with K38Q, F87Y
notes: Humanised IgG4 (S241P)/kappa; position is Kabat
B10: 969gH1gL2 (antibody, human IgG4 S228P, kappa, name in Kabat numbering, V domains shown)
VH: B1 VH
VL: B1 VL with K38Q
notes: as for B6
B11: 969gH2gL3 (antibody, human IgG4 S228P, kappa, name in Kabat numbering, V domains shown)
VH: B1 VH with A80V
VL: B1 VL with Y71F
notes: as for B6
B12: 969gH2gL5 (antibody, human IgG4 S228P, kappa, name in Kabat numbering, V domains shown)
VH: B1 VH with A80V
VL: B1 VL with K38Q, Y71F
notes: as for B6
B13: 969gH1gL3 (antibody, human IgG4 S228P, kappa, name in Kabat numbering, V domains shown)
VH: B1 VH
VL: B1 VL with Y71F
notes: as for B6
B14: 969gH1gL5 (antibody, human IgG4 S228P, kappa, name in Kabat numbering, V domains shown)
VH: B1 VH
VL: B1 VL with K38Q, Y71F
notes: as for B6
B15: 969gH2gL6 (antibody, human IgG4 S228P, kappa, name in Kabat numbering, V domains shown)
VH: B1 VH with A80V
VL: B1 VL with Y71F, F87Y
notes: Humanised IgG4 (S241P)/kappa; positions are Kabat; also called Ab969.g9
B16: 969gH1gL8 (antibody, human IgG4 S228P, kappa, name in Kabat numbering, V domains shown)
VH: B1 VH
VL: B1 VL with K38Q, Y71F, F87Y
notes: as for B6

Biological target: T1, recombinant human CSF-1R (form not stated) (human, UniProt P07333 20-512, limits assumed)
T1 construct: for the ELISA no species is stated; also called recombinant CSF-1R; recombinant CSF-1R protein
T1 sequence (P07333 20-512 limits assumed): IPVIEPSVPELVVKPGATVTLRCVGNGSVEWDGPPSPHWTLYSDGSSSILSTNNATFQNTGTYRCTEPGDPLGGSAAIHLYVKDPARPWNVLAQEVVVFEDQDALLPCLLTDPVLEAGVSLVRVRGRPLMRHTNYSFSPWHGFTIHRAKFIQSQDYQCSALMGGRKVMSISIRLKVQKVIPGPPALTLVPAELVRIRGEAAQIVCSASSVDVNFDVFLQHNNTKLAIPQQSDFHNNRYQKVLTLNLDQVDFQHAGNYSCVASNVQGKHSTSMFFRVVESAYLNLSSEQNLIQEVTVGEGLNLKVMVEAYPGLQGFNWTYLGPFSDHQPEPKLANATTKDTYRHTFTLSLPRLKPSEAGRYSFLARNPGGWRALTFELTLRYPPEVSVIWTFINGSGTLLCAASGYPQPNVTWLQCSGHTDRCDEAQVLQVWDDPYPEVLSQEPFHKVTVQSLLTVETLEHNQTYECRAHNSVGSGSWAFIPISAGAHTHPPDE
Assay: BIAcore, mean of 3 (fourth row, unlabelled)
Protocol: (§1) The assay format was capture of the anti-CSF-1R antibodies by immobilised anti-human IgG,F(ab′)₂, then a titration of hCSF-1R/Fc over the captured surface. BIA (Biomolecular Interaction Analysis) was performed using a BIAcore 3000 (GE Healthcare Bio-Sciences AB). All experiments were performed at 25° C. An AffiniPure F(ab′)₂ fragment goat anti-human IgG, F(ab′)₂ fragment specific (Jackson ImmunoResearch), was immobilised on a CM5 Sensor Chip (GE Healthcare Bio-Sciences AB) via amine coupling chemistry to a level of ˜5000 response units (RU). HBS-EP buffer (10 mM HEPES, pH 7.4, 0.15M NaCl, 3 mM EDTA, 0.005% Surfactant P20, GE Healthcare Bio-Sciences AB) was used as the running buffer with a flow rate of 10 μl/min.

Kd	koff	kon	Binder
3.2 pM	8.13e-06 s⁻¹	2.58e+06 M⁻¹ s⁻¹	B1
2.8 pM	5.55e-06 s⁻¹	1.97e+06 M⁻¹ s⁻¹	B2
3.3 pM	8.14e-06 s⁻¹	2.47e+06 M⁻¹ s⁻¹	B3
3.7 pM	9.55e-06 s⁻¹	2.56e+06 M⁻¹ s⁻¹	B4

Biological target: T1, recombinant human CSF-1R (form not …)
Assay: BIAcore, experiment 2 of 3
Protocol: as §1

Kd	koff	kon	Binder
2.4 pM	6.04e-06 s⁻¹	2.57e+06 M⁻¹ s⁻¹	B1
3.4 pM	6.65e-06 s⁻¹	1.94e+06 M⁻¹ s⁻¹	B2
3.7 pM	8.95e-06 s⁻¹	2.44e+06 M⁻¹ s⁻¹	B3
3.6 pM	9.41e-06 s⁻¹	2.6e+06 M⁻¹ s⁻¹	B4

Biological target: human CSF-1R on cells (THP-1 cells, transfected HEK293F cells, primary human monocytes) (human, UniProt P07333 20-972)
Sequence (P07333 20-972): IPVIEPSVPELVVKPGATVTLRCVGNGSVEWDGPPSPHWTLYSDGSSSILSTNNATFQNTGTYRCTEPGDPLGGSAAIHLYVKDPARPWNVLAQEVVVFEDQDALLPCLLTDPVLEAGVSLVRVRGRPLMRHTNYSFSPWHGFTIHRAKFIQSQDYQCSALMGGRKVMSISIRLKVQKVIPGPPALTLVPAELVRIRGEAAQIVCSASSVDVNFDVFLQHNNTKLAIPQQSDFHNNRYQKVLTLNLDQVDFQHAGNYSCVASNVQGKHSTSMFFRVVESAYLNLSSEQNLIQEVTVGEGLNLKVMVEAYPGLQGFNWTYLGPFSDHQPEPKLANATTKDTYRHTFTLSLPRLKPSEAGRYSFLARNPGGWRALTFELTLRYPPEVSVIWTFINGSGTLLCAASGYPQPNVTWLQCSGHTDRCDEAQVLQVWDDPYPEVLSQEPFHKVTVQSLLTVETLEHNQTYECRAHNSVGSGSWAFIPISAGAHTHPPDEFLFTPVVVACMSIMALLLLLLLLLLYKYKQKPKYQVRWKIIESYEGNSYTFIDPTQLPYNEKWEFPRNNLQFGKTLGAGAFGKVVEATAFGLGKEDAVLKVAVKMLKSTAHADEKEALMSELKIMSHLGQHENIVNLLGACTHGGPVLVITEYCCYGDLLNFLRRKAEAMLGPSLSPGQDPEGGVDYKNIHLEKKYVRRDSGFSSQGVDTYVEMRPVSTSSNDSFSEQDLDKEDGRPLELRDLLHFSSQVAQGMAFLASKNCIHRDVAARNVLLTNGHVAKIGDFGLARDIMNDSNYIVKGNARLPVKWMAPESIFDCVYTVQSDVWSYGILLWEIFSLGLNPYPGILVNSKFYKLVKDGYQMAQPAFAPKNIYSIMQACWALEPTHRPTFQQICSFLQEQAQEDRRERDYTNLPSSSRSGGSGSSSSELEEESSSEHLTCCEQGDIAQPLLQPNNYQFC
Assay: cell-based or functional assay

IC50, MCP-1 inhibition assay, Donor 1	IC50, MCP-1 inhibition assay, Donor 2	IC50 ratio against chimeric 969.g0 (number in parentheses), Donor 1	IC50 ratio against chimeric 969.g0 (number in parentheses), Donor 2	Mean chimeric/graft IC50 ratio	Binder
0.0463 µg/mL	0.0061 µg/mL	1.5 ratio	1.1 ratio	1.3 ratio	B4

Biological target: T1, recombinant human CSF-1R (form not …)
Assay: BIAcore, DG/SG comparison, crude cell supernatant

Kd	koff	kon	Binder
2.3 pM	5e-06 s⁻¹	2.18e+06 M⁻¹ s⁻¹	B2
2 pM	5e-06 s⁻¹	2.54e+06 M⁻¹ s⁻¹	B5

Biological target: T1, recombinant human CSF-1R (form not …)
Assay: BIAcore, experiment 1 of 3
Protocol: as §1

Kd	koff	kon	Binder
3.2 pM	8.47e-06 s⁻¹	2.65e+06 M⁻¹ s⁻¹	B1
2.5 pM	5e-06 s⁻¹	1.99e+06 M⁻¹ s⁻¹	B2
3.6 pM	8.84e-06 s⁻¹	2.43e+06 M⁻¹ s⁻¹	B3
3 pM	7.73e-06 s⁻¹	2.57e+06 M⁻¹ s⁻¹	B4

Biological target: T1, recombinant human CSF-1R (form not …)
Assay: BIAcore, humanisation stage, crude cell supernatant

Kd	koff	kon	Binder
≤ 2.4 pM	≤ 5e-06 s⁻¹	2.04e+06 M⁻¹ s⁻¹	B1
4.4 pM	5e-06 s⁻¹	1.15e+06 M⁻¹ s⁻¹	B6
4.1 pM	5e-06 s⁻¹	1.23e+06 M⁻¹ s⁻¹	B2
2.1 pM	5e-06 s⁻¹	2.39e+06 M⁻¹ s⁻¹	B7
2.3 pM	5.23e-06 s⁻¹	2.27e+06 M⁻¹ s⁻¹	B3
3.4 pM	6.11e-06 s⁻¹	1.78e+06 M⁻¹ s⁻¹	B8
3.3 pM	5e-06 s⁻¹	1.5e+06 M⁻¹ s⁻¹	B9
4.4 pM	9.64e-06 s⁻¹	2.2e+06 M⁻¹ s⁻¹	B4
3.4 pM	5e-06 s⁻¹	1.46e+06 M⁻¹ s⁻¹	B10
3.4 pM	7.29e-06 s⁻¹	2.12e+06 M⁻¹ s⁻¹	B11
6.5 pM	5e-06 s⁻¹	768000 M⁻¹ s⁻¹	B12
2.8 pM	5e-06 s⁻¹	1.8e+06 M⁻¹ s⁻¹	B13
6.6 pM	6.11e-06 s⁻¹	926000 M⁻¹ s⁻¹	B14
4.4 pM	6.23e-06 s⁻¹	1.4e+06 M⁻¹ s⁻¹	B15
4.3 pM	5e-06 s⁻¹	1.17e+06 M⁻¹ s⁻¹	B16

Biological target: T1, recombinant human CSF-1R (form not …)
Assay: BIAcore, experiment 3 of 3
Protocol: as §1

Kd	koff	kon	Binder
3.9 pM	9.88e-06 s⁻¹	2.51e+06 M⁻¹ s⁻¹	B1
2.5 pM	5e-06 s⁻¹	1.97e+06 M⁻¹ s⁻¹	B2
2.6 pM	6.63e-06 s⁻¹	2.54e+06 M⁻¹ s⁻¹	B3
4.6 pM	1.15e-05 s⁻¹	2.52e+06 M⁻¹ s⁻¹	B4
